# Laboratory results taken from US20160272706A1 (AstraZeneca / MedImmune, published 2016).
# Legend:
# Human IL-13 [1] = target: T1, Human IL-13 (human, UniProt P35225 35-146); assay: IC50 of the parent scFv divided by IC50 of the clone, biochemical receptor-ligand inhibition assay, purified scFv
# T1 construct: also called human interleukin 13 (Peprotech); the antigen
# Human IL-13 [2] = target: T1, Human IL-13; assay: biochemical receptor-ligand inhibition assay, purified scFv titrated; the IL-13 receptor used is not named in Example 1
# Human IL-13 [3] = target: T1, Human IL-13; assay: IC50 of the parent scFv divided by IC50 of the clone, biochemical receptor-ligand inhibition assay, purified scFv (second panel)
# Human IL-13 [4] = target: T1, Human IL-13; assay: biochemical receptor-ligand inhibition assay, purified scFv titrated (second panel); the IL-13 receptor used is not named in Example 1
# T1 sequence (P35225 35-146 limits assumed): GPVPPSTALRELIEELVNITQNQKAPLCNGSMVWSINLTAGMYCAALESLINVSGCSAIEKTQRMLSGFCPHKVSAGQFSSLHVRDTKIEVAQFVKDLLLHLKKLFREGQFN
Binder,Fld improvement (Human IL-13 [1]) [fold],IC50 (Human IL-13 [2]) [nM],Fld improvement (Human IL-13 [3]) [fold],IC50 (Human IL-13 [4]) [nM]
"13NG0067 (scFv, V domains shown, purified scFv from the mini-recombination library; member of group m20; also called ZZ0SEF-H04; copies: 1 + 1) VH: QVQLVQSGAEVKKPGASVKVSCKASGYTFTNYGLSWVRQAPGQGLEWMGWINYDGGNTQYGQEFQGRVTMTTDTSTSTAYMELRGLRSDDTAVYYCARDSSSSWARWFFDLWGRGTLVTVSS VL: SYVLTQPPSVSVAPGKTARIPCGGNMVGARLVHWYQQKPGQAPVLIIMDDIDRPSGIPERFSGSNSGNTATLTISRVEAGDEADYYCQVWDTGSSPVVFGGGTKLTVL",6.12,6.63,–,–
"13NG0078 (scFv, V domains shown, purified scFv from the mini-recombination library; member of group m20; also called ZZ0SFL-G06; copies: 1 + 1) VH: QVQLVQSGAEVKKPGASVKVSCKASGYTFTNYGLSWVRQAPGQGLEWVGWINYDGGNTQYGQEFQGRVTMTTDTSTSTAYMELRSLRSDDTAVYYCARDSSSSWARWFFDLWGRGTLVTVSS VL: SYVLTQPPSVSVAPGKTARIPCGGNLIAARLVHWYQQKPGQAPVLIMFDDQDRPSGIPERFSGSNSGNTATLTISRVETGDEADYYCQVWDTGSLPVVFGGGTKLTVL",–,–,6.4,7.22
"13NG0075 (scFv, V domains shown, purified scFv from the mini-recombination library; member of group m20; also called ZZ0SEE-A06; copies: 1 + 1) VH: QVQLVQSGAEVKKPGASVKVSCKASGYTFTNYGLSWVRQAPGQGLEWMGWINYDGGNTQYGQEFQGRVTMTTDTSTSTAYMELRSLRSDDTAVYYCARDSSSSWARWFFDLWGRGTLVTVSS VL: SYVLTQPPSVSVAPGKTARIPCGGNMVGARLVHWYQQKPGQAPVLVIMDDIDRPSGIPERFSGSNSGNTATLTISRVEAGDEADYYCQVWDTGSRPVVFGGGTKLTVL",4.21,9.65,–,–
"13NG0071 (scFv, V domains shown, purified scFv from the mini-recombination library; member of group m20; also called ZZ0SEE-A09; copies: 1 + 1) VH: QVQLVQSGAEVKKPGASVKVSCKASGYTFTNYGLSWVRQAPGQGLEWMGWINYDGGNTQYGQEFQGRVTMTTDTSTSTAYMELRSLRSDDTAVYYCARDSSSSWARWFFDLWGRGTLVTVSS VL: SYVLTQPPSVSVAPGKTARIPCGGNMVGARLVHWYQQKPGQAPVLIVFDDEDRPSGIPERFSGSNSGNTATLTISRVEAGDEADYYCQVWDTGSLPVVFGGGTKLTVL",3.8,10.7,–,–
"13NG0077 (scFv, V domains shown, purified scFv from the mini-recombination library; member of group m20; also called ZZ0SED-A07; copies: 1 + 1) VH: QVQLVQSGAEVKKPGASVKVSCKASGYTFTNYGLSWVRQAPGQGLEWMGWINYDGGNTQYGQEFQGRVTMTTDTSTSTAYMELRSLRSDDTAVYYCARDSSSSWARWFFDLWGRGTLVTVSS VL: SYVLTQPPSVSVAPGKTARIPCGGNMVGAYLVHWYQQKPGQAPVLIVYDDMDRPSGIPERFSGSNSGNTATLTISRVEAGDEADYYCQVWDTGSSPVVFGGGTKLTVL",3.93,10.3,–,–
"13NG0076 (scFv, V domains shown, purified scFv from the mini-recombination library; member of group m20; also called ZZ0SEA-F10; copies: 1 + 1) VH: QVQLVQSGAEVKKPGASVKVSCKASGYTFTNYGLSWVRQAPGQGLEWMGWINYDGGNTQYGQEFQGRVTMTTDTSTSTAYMELRSLRSDDTAVYYCARDSSSSWARWFFDLWGRGTLVTVSS VL: SYVLTQPPSVSVAPGKTARIPCGGNMVGARLVHWYQQKPGQAPVLVIMDDIDRPSGIPERFSGSNSGNTATLTISRVEAGDEADYYCQVWDTGSRPVVFGGGTKLTVL",5.09,7.98,–,–
"13NG0069 (scFv, V domains shown, purified scFv from the mini-recombination library; member of group m20; also called ZZ0SEA-A03; copies: 1 + 1) VH: QVQLVQSGAEVKKPGASVKVSCKASGYTFTNYGLSWVRQAPGQGLEWMGWINYDGGNTQYGQEFQGRVTMTTDTSTSTAYMELRSLRSDDTAVYYCARDSSSSWARWFFDLWGRGTLVTVSS VL: SYVLTQPPSVSVAPGKTARIPCGGNMVGARLVHWYQQKPGQAPVLIIMDDIDRPSGIPERFSGSNSGNTATLTISRVEAGDEADYYCQVWDTGSRPVVFGGGTKLTVL",5.18,7.85,–,–
"13NG0070 (scFv, V domains shown, purified scFv from the mini-recombination library; member of group m20; also called ZZ0SED-B06; copies: 1 + 1) VH: QVQLVQSGAEVKKPGASVKVSCKASGYTFTNYGLSWVRQAPGQGLEWMGWINYDGGNTQYGQEFQGRVTMTTDTSTSTAYMELRSLRSDDTAVYYCARDSSSSWARWFFDLWGRGTLVTVSS VL: SYVLTQPPSVSVAPGKTARIPCGGNMVGARLVHWYQQKPGQAPVLIVFDDEDRPSGIPERFSGSNSGNTATLTISRVEAGDEADYYCQVWDTGSRPVVFGGGTKLTVL",4.28,9.49,–,–
"13NG0072 (scFv, V domains shown, purified scFv from the mini-recombination library; member of group m20; also called ZZ0SEA-H11; copies: 1 + 1) VH: QVQLVQSGAEVKKPGASVKVSCKASGYTFTNYGLSWVRQAPGQGLEWMGWINYDGGNTQYGQEFQGRVTMTTDTSTSTAYMELRSLRSDDTAVYYCARDSSSSWARWFFDLWGRGTLVTVSS VL: SYVLTQPPSVSVAPGKTARIPCGGNMVGARLVHWYQQKPGQAPVLIVYDDMDRPSGIPERFSGSNSGNTATLTISRVETGDEADYYCQVWDTGSRPVVFGGGTKLTVL",3.16,12.8,–,–
"13NG0068 (scFv, V domains shown, purified scFv from the mini-recombination library; member of group m20; also called ZZ0SEB-B02; copies: 1 + 1) VH: QVQLVQSGAEVKKPGASVKVSCKASGYTFTNYGLSWVRQAPGQGLEWVGWINYDGGNTQYGQEFQGRVTMTTDTSTGTAYMELRSLRSDDTAVYYCARDSSSSWARWFFDLWGRGTLVTVSS VL: SYVLTQPPLVSVAPGKTARIPCGGNLIGARLVHWYQQKPGQAPVLIIMDDIDRPSGIPERFSGSNSGNTATLTISRVEAGDEADYYCQVWDTGSDPVVFGGGTKLTVL",7.5,5.42,–,–

# Continued, values first:
Fld improvement (Human IL-13 [1]) [fold],IC50 (Human IL-13 [2]) [nM],Fld improvement (Human IL-13 [3]) [fold],IC50 (Human IL-13 [4]) [nM],Binder
–,–,4.2,11,"13NG0082 (scFv, V domains shown, purified scFv from the mini-recombination library; member of group m20; also called ZZ0SEF-E03; copies: 1 + 1) VH: QVQLVQSGAEVKKPGASVKVSCKASGYTFTNYGLSWVRQAPGQGLEWMGWINYDGGNTQYGQEFQGRVTMTTDTSTSTAYMELRSLRSDDTAVYYCARDSSSSWARWFFDLWGRGTLVTVSS VL: SYVLTQPPSVSVAPGKTARIPCGGNMVGARLVHWYQQKPGQAPVLIVFDDEDRPSGIPERFSGSNSGNTATLTISRVEAGDEADYYCQVWDTGSRPVVFGGGTKLTVL"
–,–,3.2,14.2,"13NG0086 (scFv, V domains shown, purified scFv from the mini-recombination library; member of group m20; also called ZZ0SEB-F04; copies: 1 + 1) VH: QVQLVQSGAEVKKPGASVKVSCKASGYTFTNYGLSWVRQAPGQGLEWMGWINYDGGNTQYGQEFQGRVTMTTDTSTSTAYMELRSLRSDDTAVYYCARDSSSSWARWFFDLWGRGTLVTVSS VL: SYVLTQPPSVSVAPGKTARIPCGGNMVGARLVHWYQQKPGQAPVLIVYDDMDRPSGIPERFSGSNSGNTATLTISRVEAGDEADYYCQVWDTGSRPVVFGGGTKLTVL"
–,–,6.5,7.11,"13NG0087 (scFv, V domains shown, purified scFv from the mini-recombination library; member of group m20; also called ZZ0SEF-E05; copies: 1 + 1) VH: QVQLVQSGAEVKKPGASVKVSCKASGYTFTNYGLSWVRQAPGQGLEWMGWINYDGGNTQYGQEFQGRVTMTTDTSTSTAYMELRSLRSDDTAVYYCARDSSSSWARWFFDLWGRGTLVTVSS VL: SYVLTQPPSVSVAPGKTARIPCGGNMVAARLVHWYQQKPGQAPVLIMFDDQDRPSGIPERFSGSNSGNTATLTISRVEAGDEADYYCQVWDTGSLPVVFGGGTKLTVL"
–,–,4.1,11.2,"13NG0080 (scFv, V domains shown, purified scFv from the mini-recombination library; member of group m20; also called ZZ0SEA-D07; copies: 1 + 1) VH: QAQLVQSGAEVKKPGASVKVSCKASGYTFTNYGLSWVRQAPGQGLEWMGWINYDGGNTQYGQEFQGRVTMTTDTSTSTAYMELRSLRSDDTAVYYCARDSSSSWARWFFDLWGRGTLVTVSS VL: SYVLTQPPSVSVAPGKTARIPCGGNLIAARLVHWYQQKPGQAPVLIVFDDEDRPSGIPERFSGSNSGNTATLTISRVETGDEADYYCQVWDTGSSPVVFGGGTKLTVL"
–,–,4.3,10.7,"13NG0084 (scFv, V domains shown, purified scFv from the mini-recombination library; member of group m20; also called ZZ0SED-F07; copies: 1 + 1) VH: QVQLVQSGAEVKKPGASVKVSCKASGYTFTNYGLSWVRQAPGQGLEWMGWINYDGGNTQYGQEFQGRVTMTTDTSTSTAYMELRSLRSDDTAVYYCARDSSSSWARWFFDLWGRGTLVTVSS VL: SYVLTQPPSVSVAPGKTARIPCGGNLIAARLVHWYQQKPGQAPVLIVFDDEDRPSGIPERFSGSNSGNTATLTISRVEAGDEADYYCQVWDTGSSPVVFGGGTKLTVL"
–,–,4.2,10.8,"13NG0085 (scFv, V domains shown, purified scFv from the mini-recombination library; member of group m20; also called ZZ0SEF-G10; copies: 1 + 1) VH: QVQLVQSGAEVKKPGASVKVSCKASGYTFTNYGLSWVRQAPGQGLEWMGWINYDGGNTQYGQEFQGRVTMTTDTSTSTAYMELRSLRSDDTAVYYCARDSSSSWARWFFDLWGRGTLVTVSS VL: SYVLTQPPSVSVAPGKTARIPCGGNMVGARLVHWYQQKPGQAPVLIIMDDIDRPSGIPERFSGSNSGNTATLTISRVEAGDEADYYCQVWDTGSRPVVFGGGTKLTVL"
–,–,5.8,7.86,"13NG0079 (scFv, V domains shown, purified scFv from the mini-recombination library; member of group m20; also called ZZ0SEA-B02; copies: 1 + 1) VH: QVQLVQSGAEVKKPGASVKVSCKASGYTFTNYGLSWVRQAPGQGLEWMGWINYDGGNTQYGQEFQGRVTMTTDTSTSTAYMELRSLRSDDTAVYYCARDSSSSWARWFFDLWGRGTLVTVSS VL: SYVLTQPPSVSVAPGKTARIPCGGNLIGARLVHWYQQKPGQAPVLIVYDDMDRPSGIPERFSGSNSGNTATLTISRVEAGDEADYYCQVWDTGSLPVVFGGGTKLTVL"
–,–,5.2,8.9,"13NG0081 (scFv, V domains shown, purified scFv from the mini-recombination library; member of group m20; the text gives two different numbers for the VH; also called ZZ0SE9-C11; copies: 1 + 1) VH: QVQLVQSGAEVKKPGASVKVSCKASGYTFTNYGLSWVRQAPGQGLEWVGWINYDGGNTQYGQEFQGRVTMTTDTSTSTAYMELRSLRSDDTAVYYCARDSSSSWARWFFDLWGRGTLVTVSS VL: SYVLTQPPSVSVAPGKTARIPCGGNLIGARLVHWYQQKPGQAPVLIVYDDMDRPSGIPERFSGSNSGNTATLTISRVEAGDEADYYCQVWDTGSRPVVFGGGTKLTVL"
–,–,5.2,8.88,"13NG0083 (antibody, V domains shown, also called unmodified 13NG0083; WT) VH: QVQLVQSGAEVKKPGASVKVSCKASGYTFTNYGLSWVRQAPGQGLEWMGWINYDGGNTQYGQEFQGRVTMTTDTSTSTAYMELRSLRSDDTAVYYCARDSSSSWARWFFDLWGRGTLVTVSS VL: SYVLTQPPSVSVAPGKTARIPCGGNMVGARLVHWYQQKPGQAPVLIVFDDEDRPSGIPERFSGSNSGNTATLTISRVEAGDEADYYCQVWDTGSSPVVFGGGTKLTVL"
